Here are results for four molecules from article PMC4539596, “Three-dimensional electron microscopy reconstruction and cysteine-mediated crosslinking provide a model of the type III secretion system needle tip complex” (Molecular Microbiology, 2014).

The target of one data set is MxiH (Shigella flexneri) (UniProt P0A223). As to the kind of experiment: avidin labelling with negative-stain EM; needle complexes with biotinylated Avitag proteins held on Ni-NTA beads by His6-MxiG, avidin in 300 to 500 molar excess overnight at 4°C, washed, eluted, negative stain; avidin counted on the needle tips.
Data set [1] deals with IpaD_avitag (Shigella flexneri) (UniProt P18013). The data set is described as above.
Data set [2] addresses IpaD (Shigella flexneri) (UniProt P18013). As to the kind of experiment: negative-stain EM three-dimensional reconstruction; tip complex and needle of purified needle complexes from the wild-type strain; the half of the images with the lower cross-correlation to the ΔipaB map, 24 Å; complex assembled on the bacteria.
Data set [3] has the same target. As to the kind of experiment: negative-stain EM three-dimensional reconstruction; tip complex and needle of purified needle complexes from the ΔipaB strain; single particle and helical image analysis, 25 Å; complex assembled on the bacteria.
For data set [4] the target is unchanged. As to the kind of experiment: negative-stain EM three-dimensional reconstruction; tip complex and needle of needle complexes purified on Ni-NTA by His6-MxiG from mxiH mutant strains (Q51A, P44A, P44A+Q51A), 21-24 Å; Q51A map refined to 19 Å; complex assembled on the bacteria.
In a further data set the target is IpaB (Shigella flexneri). As to the kind of experiment: avidin labelling with negative-stain EM; needle complexes with biotinylated Avitag proteins held on Ni-NTA beads by His6-MxiG, avidin in 300 to 500 molar excess overnight at 4°C, washed, eluted, negative stain; avidin counted on the needle tips.
Data set [5] deals with the molecule itself. As to the kind of experiment: cross-linking; bacteria of otherwise wild-type background treated with 30 uM BM(PEG)2, quenched; crudely purified needle complexes, Western blot with anti-IpaD and anti-IpaB; no bands with the oxidiser; pattern unchanged on addition of Congo red. Background: Immunoblotting shows a protein as a band on a membrane.

Chain of MxiH (Shigella flexneri) (P0A223 whole entry): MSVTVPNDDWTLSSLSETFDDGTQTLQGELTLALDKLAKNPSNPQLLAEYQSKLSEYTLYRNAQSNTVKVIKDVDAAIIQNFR

The molecule IpaB_avitag (natural protein) yielded a percent of needle tips labelled with at least one avidin in the data set with MxiH (Shigella flexneri) of 2.5%.
In the data set with MxiH (Shigella flexneri), “IpaD_avitag (from UniProt P18013 1-332) (natural protein)” had a percent of needle tips labelled with at least one avidin of 25%. The same molecule returned a stoichiometry N in data set [1] of 4.
As for “IpaD (from UniProt P18013 1-332) (natural protein)”, the stoichiometry N in the data set with IpaD (Shigella flexneri) [2] stood at 4; in the data set with IpaD (Shigella flexneri) [3], 5; in the data set with IpaD (Shigella flexneri) [4], 4; in the data set with IpaB (Shigella flexneri), 4.

B1: IpaD C322S/S173C/K258C (natural protein)
chain: MNITTLTNSISTSSFSPNNTNGSSTETVNSDIKTTTSSHPVSSLTMLNDTLHNIRTTNQALKKELSQKTLTKTSLEEIALHSSQISMDVNKSAQLLDILSRNEYPINKDARELLHSAPKEAELDGDQMISHRELWAKIANSINDINEQYLKVYEHAVSSYTQMYQDFSAVLSCLAGWISPGGNDGNSVKLQVNSLKKALEELKEKYKDKPLYPANNTVSQEQANKWLTELGGTIGKVSQKNGGYVVSINMTPIDNMLCSLDNLGGNGEVVLDNAKYQAWNAGFSAEDETMKNNLQTLVQKYSNANSIFDNLVKVLSSTISSSTDTDKLFLHF
notes: IpaD, Shigella flexneri, with the intrinsic cysteine 322 changed to serine and two cysteines put in (helix α3 and helix α6); also called ipaDS173C/K258C; source: S. flexneri ΔipaD, ΔipaB ΔipaD or ΔmxiH ΔipaD background, from pUC18 ipaD_(C322S); on needle tips, in sheared needles or crudely purified needle complexes
For B1, the “stoichiometry N” value in data set [5] turned out to be 5.

As usually defined, the stoichiometry N is the number of molecules, sites or subunits per partner or assembly.
